The values that follow come from patent US20070077617.

Substitutions are numbered along the chain they refer to. Names may count otherwise.

Sequences and labels used below:
B1: OmpT protease variant OmpT D97T (protein)
chain: STETLSFTPDNINADISLGTLSGKTKERVYLAEEGGRKVSQLDWKFNNAAIIKGAINWDLMPQISIGAAGWTTLGSRGGNMVDQDWMDSSNPGTWTTESRHPDTQLNYANEFDLNIKGWLLNEPNYRLGLMAGYQESRYSFTARGGSYIYSSEEGFRDDIGSFPNGERAIGYKQRFKMPYIGLTGSYRYEDFELGGTFKYSGWVESSDNDEHYDPGKRITYRSKVKDQNYYSVAVNAGYYVTPNAKVYVEGAWNRVTNKKGNTSLYDHNNNTSDYSKNGAGIENYNFITTAGLKYTF
B2: OmpT protease variant OmpT D97Q (protein)
chain: B1 chain with T97Q
B3: OmpT protease variant OmpT D97V (protein)
chain: B1 chain with T97V
B4: OmpT protease variant OmpT D97E (protein)
chain: B1 chain with T97E
B5: OmpT protease variant OmpT D97C (protein)
chain: B1 chain with T97C
B6: OmpT protease variant OmpT D97N (protein)
chain: B1 chain with T97N
B7: OmpT protease variant OmpT D97I (protein)
chain: B1 chain with T97I
B8: OmpT protease variant OmpT D97A (protein)
chain: B1 chain with T97A

Chain of fusion protein PRQ (chain, as listed by the source): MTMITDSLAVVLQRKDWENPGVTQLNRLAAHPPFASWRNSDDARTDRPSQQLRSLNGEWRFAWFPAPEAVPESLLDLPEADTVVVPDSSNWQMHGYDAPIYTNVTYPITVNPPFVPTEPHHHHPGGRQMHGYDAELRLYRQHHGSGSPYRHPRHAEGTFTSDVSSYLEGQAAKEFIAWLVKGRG
Chain of fusion protein PRI (chain, as listed by the source): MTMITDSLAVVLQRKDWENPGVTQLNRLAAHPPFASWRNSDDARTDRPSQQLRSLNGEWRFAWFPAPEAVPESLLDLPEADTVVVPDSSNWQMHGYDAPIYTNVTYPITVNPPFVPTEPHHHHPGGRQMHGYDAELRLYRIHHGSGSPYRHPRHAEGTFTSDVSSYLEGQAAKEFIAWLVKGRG
Chain of fusion protein PRE (chain, as listed by the source): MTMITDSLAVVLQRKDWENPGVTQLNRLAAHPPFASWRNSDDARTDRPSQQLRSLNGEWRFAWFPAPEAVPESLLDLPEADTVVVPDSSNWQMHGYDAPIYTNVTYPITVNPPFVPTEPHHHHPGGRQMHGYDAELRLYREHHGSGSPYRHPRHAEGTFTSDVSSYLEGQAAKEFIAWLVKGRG
Chain of fusion protein PRY (chain, as listed by the source): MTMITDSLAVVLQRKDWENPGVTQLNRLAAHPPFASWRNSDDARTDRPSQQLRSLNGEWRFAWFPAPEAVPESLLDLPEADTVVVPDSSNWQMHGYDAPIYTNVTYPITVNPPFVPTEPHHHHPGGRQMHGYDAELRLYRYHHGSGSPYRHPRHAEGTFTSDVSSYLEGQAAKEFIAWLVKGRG

The target of one data set is fusion protein PRA.
Chain of fusion protein PRA (chain, as listed by the source): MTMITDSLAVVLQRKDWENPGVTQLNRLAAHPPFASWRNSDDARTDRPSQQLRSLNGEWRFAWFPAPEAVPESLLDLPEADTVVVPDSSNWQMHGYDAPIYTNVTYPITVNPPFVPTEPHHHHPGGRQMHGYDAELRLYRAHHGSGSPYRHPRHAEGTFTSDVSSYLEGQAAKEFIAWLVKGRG
B1 gave a relative cleavage efficiency of 6.8%.

In turn, B2 displayed a relative cleavage efficiency of 4%.

In the case of B3, the relative cleavage efficiency result is “less than 3.0%”.

Consider B4, for which the relative cleavage efficiency is 6.5%.

B5 showed a relative cleavage efficiency of 6.2%.

B6 displayed a relative cleavage efficiency of 3.8%.

As for B7, the relative cleavage efficiency entry is “less than 3.0%”.

Protein B8 showed a relative cleavage efficiency of 3.8%.

The target in a further data set is fusion protein PRC.
Chain of fusion protein PRC (chain, as listed by the source): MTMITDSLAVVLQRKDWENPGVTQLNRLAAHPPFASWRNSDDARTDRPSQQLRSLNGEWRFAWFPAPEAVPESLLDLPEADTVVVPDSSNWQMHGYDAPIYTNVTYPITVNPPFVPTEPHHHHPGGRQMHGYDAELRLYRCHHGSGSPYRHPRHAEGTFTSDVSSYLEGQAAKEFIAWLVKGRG
Regarding B1, the relative cleavage efficiency is 4.6%.

Take B2: the relative cleavage efficiency worked out at 4.1%.

Turning to B3, the relative cleavage efficiency result is reported as “less than 3.0%”.

In turn, B4 returned a relative cleavage efficiency of 6.9%.

The protein B5 had a relative cleavage efficiency of 4.8%.

B6 yielded a relative cleavage efficiency of less than 3%.

For the protein B7, the relative cleavage efficiency entry is “less than 3.0%”.

Protein B8 registered a relative cleavage efficiency of less than 3%.

For another data set, the target named is fusion protein PRD.
Chain of fusion protein PRD (chain, as listed by the source): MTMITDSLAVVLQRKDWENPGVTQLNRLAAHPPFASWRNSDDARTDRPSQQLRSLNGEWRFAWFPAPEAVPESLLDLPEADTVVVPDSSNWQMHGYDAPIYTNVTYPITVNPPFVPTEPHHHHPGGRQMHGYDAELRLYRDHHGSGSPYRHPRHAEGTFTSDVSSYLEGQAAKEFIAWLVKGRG
For B1, the relative cleavage efficiency result is “less than 3%”.

As to B2, the relative cleavage efficiency result is listed as “less than 3%”.

For the protein B3, the relative cleavage efficiency result was “less than 3.0%”.

Regarding B4, the relative cleavage efficiency result is “less than 3%”.

In the case of B5, the relative cleavage efficiency entry is “less than 3%”.

On to B6, for which the relative cleavage efficiency entry was “less than 3%”.

Turning to B7, the relative cleavage efficiency entry is “less than 3.0%”.

Take B8: the relative cleavage efficiency result is reported as “less than 3%”.

A further data set has as its target fusion protein PRE.
On to B1, for which the relative cleavage efficiency result is given as “less than 3%”.

For B2, the relative cleavage efficiency result is given as “less than 3%”.

B3: the relative cleavage efficiency result was “less than 3.0%”.

For the protein B4, the relative cleavage efficiency entry is listed as “less than 3%”.

In the case of B5, the relative cleavage efficiency entry is recorded as “less than 3%”.

Take B6: the relative cleavage efficiency entry is “less than 3%”.

For the protein B7, the relative cleavage efficiency entry is on record as “less than 3.0%”.

B8: the relative cleavage efficiency entry was “less than 3%”.

The target of a further data set is fusion protein PRF.
Chain of fusion protein PRF (chain, as listed by the source): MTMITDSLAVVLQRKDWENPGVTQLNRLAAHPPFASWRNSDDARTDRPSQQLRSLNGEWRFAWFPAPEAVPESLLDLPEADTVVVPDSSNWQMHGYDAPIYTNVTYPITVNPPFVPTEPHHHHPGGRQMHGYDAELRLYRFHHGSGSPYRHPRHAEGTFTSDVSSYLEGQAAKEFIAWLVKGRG
The protein B1 displayed a relative cleavage efficiency of 3.7%.

The protein B2 yielded a relative cleavage efficiency of less than 3%.

Take B3: the relative cleavage efficiency entry is given as “less than 3.0%”.

For B4, the relative cleavage efficiency turned out to be 3.4%.

Protein B5 had a relative cleavage efficiency of 4.6%.

On to B6, for which the relative cleavage efficiency was less than 3%.

Take B7: the relative cleavage efficiency entry is “less than 3.0%”.

B8: the relative cleavage efficiency is less than 3%.

A further data set deals with fusion protein PRG.
Chain of fusion protein PRG (chain, as listed by the source): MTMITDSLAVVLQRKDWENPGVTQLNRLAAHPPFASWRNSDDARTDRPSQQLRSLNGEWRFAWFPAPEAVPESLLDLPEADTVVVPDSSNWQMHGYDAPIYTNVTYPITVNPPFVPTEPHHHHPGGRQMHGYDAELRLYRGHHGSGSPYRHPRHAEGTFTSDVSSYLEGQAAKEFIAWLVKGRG
B1: the relative cleavage efficiency result is given as “less than 3%”.

On to B2, for which the relative cleavage efficiency result is given as “less than 3%”.

As to B3, the relative cleavage efficiency result is listed as “less than 3.0%”.

B4: the relative cleavage efficiency result is listed as “less than 3%”.

For the protein B5, the relative cleavage efficiency result is on record as “less than 3%”.

Regarding B6, the relative cleavage efficiency result is reported as “less than 3%”.

In the case of B7, the relative cleavage efficiency result is recorded as “less than 3.0%”.

Regarding B8, the relative cleavage efficiency entry is listed as “less than 3%”.

The target in a further data set is fusion protein PRH.
Chain of fusion protein PRH (chain, as listed by the source): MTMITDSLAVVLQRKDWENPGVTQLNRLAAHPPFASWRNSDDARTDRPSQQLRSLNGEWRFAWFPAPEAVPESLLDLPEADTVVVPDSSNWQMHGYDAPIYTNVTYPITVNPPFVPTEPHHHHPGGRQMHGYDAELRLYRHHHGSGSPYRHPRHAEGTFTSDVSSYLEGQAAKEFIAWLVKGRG
In the case of B1, the relative cleavage efficiency entry is given as “less than 3%”.

As to B2, the relative cleavage efficiency result was “less than 3%”.

Turning to B3, the relative cleavage efficiency entry was “less than 3.0%”.

Turning to B4, the relative cleavage efficiency result is “less than 3%”.

With B5, the relative cleavage efficiency entry is on record as “less than 3%”.

On to B6, for which the relative cleavage efficiency result is given as “less than 3%”.

For B7, the relative cleavage efficiency result was “less than 3.0%”.

Turning to B8, the relative cleavage efficiency result was “less than 3%”.

Another data set concerns the target fusion protein PRI.
In turn, B1 had a relative cleavage efficiency of less than 3%.

Protein B2 displayed a relative cleavage efficiency of less than 3%.

B3: the relative cleavage efficiency entry is listed as “less than 3.0%”.

Regarding B4, the relative cleavage efficiency was less than 3%.

In turn, B5 displayed a relative cleavage efficiency of less than 3%.

As to B6, the relative cleavage efficiency was less than 3%.

Take B7: the relative cleavage efficiency entry is listed as “less than 3.0%”.

B8 registered a relative cleavage efficiency of less than 3%.

In another data set the target is fusion protein PRK.
Chain of fusion protein PRK (chain, as listed by the source): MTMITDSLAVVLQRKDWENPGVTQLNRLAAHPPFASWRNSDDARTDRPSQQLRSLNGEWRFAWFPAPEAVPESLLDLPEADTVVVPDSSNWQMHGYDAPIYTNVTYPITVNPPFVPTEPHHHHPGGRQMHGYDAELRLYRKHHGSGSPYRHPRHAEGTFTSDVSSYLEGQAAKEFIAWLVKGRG
In the case of B1, the relative cleavage efficiency is less than 3%.

In the case of B2, the relative cleavage efficiency was less than 3%.

As to B3, the relative cleavage efficiency result is “less than 3.0%”.

In turn, B4 showed a relative cleavage efficiency of 39%.

For the protein B5, the relative cleavage efficiency was 3.9%.

The protein B6 yielded a relative cleavage efficiency of less than 3%.

B7: the relative cleavage efficiency entry is “less than 3.0%”.

Protein B8 came in with a relative cleavage efficiency of less than 3%.

The target of a further data set is fusion protein PRL.
Chain of fusion protein PRL (chain, as listed by the source): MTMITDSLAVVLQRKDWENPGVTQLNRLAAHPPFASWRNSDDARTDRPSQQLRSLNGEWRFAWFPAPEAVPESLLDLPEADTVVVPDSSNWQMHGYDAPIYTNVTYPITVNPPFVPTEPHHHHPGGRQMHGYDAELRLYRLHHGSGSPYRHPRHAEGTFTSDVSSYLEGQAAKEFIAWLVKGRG
Regarding B1, the relative cleavage efficiency result is on record as “less than 3%”.

B2: the relative cleavage efficiency result was “less than 3%”.

In the case of B3, the relative cleavage efficiency entry was “less than 3.0%”.

For B4, the relative cleavage efficiency entry was “less than 3%”.

With B5, the relative cleavage efficiency result is “less than 3%”.

Regarding B6, the relative cleavage efficiency result is “less than 3%”.

On to B7, for which the relative cleavage efficiency result is recorded as “less than 3.0%”.

In the case of B8, the relative cleavage efficiency result is recorded as “less than 3%”.

For a further data set, the target named is fusion protein PRM.
Chain of fusion protein PRM (chain, as listed by the source): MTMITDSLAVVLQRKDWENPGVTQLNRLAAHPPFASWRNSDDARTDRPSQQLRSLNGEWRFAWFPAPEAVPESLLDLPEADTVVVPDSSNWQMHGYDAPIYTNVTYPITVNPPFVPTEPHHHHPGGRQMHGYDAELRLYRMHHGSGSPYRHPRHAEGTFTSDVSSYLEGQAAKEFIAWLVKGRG
As to B1, the relative cleavage efficiency was less than 3%.

Take B2: the relative cleavage efficiency is less than 3%.

In the case of B3, the relative cleavage efficiency result was “less than 3.0%”.

Consider B4, for which the relative cleavage efficiency was less than 3%.

B5 registered a relative cleavage efficiency of less than 3%.

B6 came in with a relative cleavage efficiency of less than 3%.

As for B7, the relative cleavage efficiency entry is “less than 3.0%”.

Regarding B8, the relative cleavage efficiency is less than 3%.

The next data set deals with fusion protein PRN.
Chain of fusion protein PRN (chain, as listed by the source): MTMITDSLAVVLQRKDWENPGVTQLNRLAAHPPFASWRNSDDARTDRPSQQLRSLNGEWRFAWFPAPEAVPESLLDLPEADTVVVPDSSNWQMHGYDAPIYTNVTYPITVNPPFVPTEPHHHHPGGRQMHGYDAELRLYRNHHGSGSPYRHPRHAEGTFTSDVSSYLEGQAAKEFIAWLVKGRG
For the protein B1, the relative cleavage efficiency is less than 3%.

The protein B2 had a relative cleavage efficiency of less than 3%.

Regarding B3, the relative cleavage efficiency result is reported as “less than 3.0%”.

B4 yielded a relative cleavage efficiency of less than 3%.

The protein B5 returned a relative cleavage efficiency of less than 3%.

As for B6, the relative cleavage efficiency is less than 3%.

As to B7, the relative cleavage efficiency result is on record as “less than 3.0%”.

The protein B8 gave a relative cleavage efficiency of less than 3%.

For another data set, the target named is fusion protein PRP.
As for B1, the relative cleavage efficiency result is on record as “less than 3%”.

Turning to B2, the relative cleavage efficiency result is given as “less than 3%”.

Turning to B3, the relative cleavage efficiency result was “less than 3.0%”.

Turning to B4, the relative cleavage efficiency result is on record as “less than 3%”.

On to B5, for which the relative cleavage efficiency entry is on record as “less than 3%”.

B6: the relative cleavage efficiency result was “less than 3%”.

Turning to B7, the relative cleavage efficiency entry is “less than 3.0%”.

On to B8, for which the relative cleavage efficiency result is “less than 3%”.

Another data set addresses fusion protein PRQ.
On to B1, for which the relative cleavage efficiency entry is “less than 3%”.

As for B2, the relative cleavage efficiency entry is “less than 3%”.

Consider B3, for which the relative cleavage efficiency entry is on record as “less than 3.0%”.

B4: the relative cleavage efficiency entry is reported as “less than 3%”.

Take B5: the relative cleavage efficiency entry is given as “less than 3%”.

B6: the relative cleavage efficiency result was “less than 3%”.

Turning to B7, the relative cleavage efficiency result is listed as “less than 3.0%”.

For B8, the relative cleavage efficiency entry was “less than 3%”.

In a further data set the target is fusion protein PRR.
Chain of fusion protein PRR (chain, as listed by the source): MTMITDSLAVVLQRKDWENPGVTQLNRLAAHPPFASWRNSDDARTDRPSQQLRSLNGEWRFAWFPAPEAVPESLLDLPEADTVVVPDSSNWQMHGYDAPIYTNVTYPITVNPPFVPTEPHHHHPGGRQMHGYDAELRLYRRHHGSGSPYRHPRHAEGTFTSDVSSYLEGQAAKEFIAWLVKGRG
In turn, B1 yielded a relative cleavage efficiency of less than 3%.

B2 had a relative cleavage efficiency of less than 3%.

On to B3, for which the relative cleavage efficiency result is recorded as “less than 3.0%”.

Consider B4, for which the relative cleavage efficiency was 49%.

In the case of B5, the relative cleavage efficiency came out at 4%.

The protein B6 showed a relative cleavage efficiency of less than 3%.

B7: the relative cleavage efficiency result was “less than 3.0%”.

On to B8, for which the relative cleavage efficiency is less than 3%.

A further data set deals with fusion protein PRS.
Chain of fusion protein PRS (chain, as listed by the source): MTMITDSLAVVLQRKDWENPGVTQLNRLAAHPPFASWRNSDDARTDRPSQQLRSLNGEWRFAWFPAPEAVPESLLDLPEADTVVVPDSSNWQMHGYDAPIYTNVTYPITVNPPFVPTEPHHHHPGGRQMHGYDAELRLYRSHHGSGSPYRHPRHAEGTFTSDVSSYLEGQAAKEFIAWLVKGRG
The protein B1 registered a relative cleavage efficiency of 7.4%.

B2: the relative cleavage efficiency turned out to be 4.4%.

For B3, the relative cleavage efficiency result is recorded as “less than 3.0%”.

The protein B4 had a relative cleavage efficiency of 7.2%.

Consider B5, for which the relative cleavage efficiency was found to be 5.6%.

In turn, B6 registered a relative cleavage efficiency of 4.1%.

Consider B7, for which the relative cleavage efficiency result is given as “less than 3.0%”.

Protein B8 showed a relative cleavage efficiency of less than 3%.

For the next data set, the target named is fusion protein PRT.
Chain of fusion protein PRT (chain, as listed by the source): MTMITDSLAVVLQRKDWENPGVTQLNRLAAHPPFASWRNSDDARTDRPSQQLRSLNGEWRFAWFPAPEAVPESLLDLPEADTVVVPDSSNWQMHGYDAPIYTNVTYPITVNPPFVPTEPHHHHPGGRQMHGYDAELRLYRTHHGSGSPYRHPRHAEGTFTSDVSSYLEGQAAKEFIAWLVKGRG
Protein B1 gave a relative cleavage efficiency of less than 3%.

B2 came in with a relative cleavage efficiency of less than 3%.

On to B3, for which the relative cleavage efficiency entry is reported as “less than 3.0%”.

The protein B4 gave a relative cleavage efficiency of less than 3%.

As to B5, the relative cleavage efficiency was less than 3%.

The protein B6 gave a relative cleavage efficiency of less than 3%.

As to B7, the relative cleavage efficiency result is listed as “less than 3.0%”.

On to B8, for which the relative cleavage efficiency is less than 3%.

The target in the next data set is fusion protein PRW.
Chain of fusion protein PRW (chain, as listed by the source): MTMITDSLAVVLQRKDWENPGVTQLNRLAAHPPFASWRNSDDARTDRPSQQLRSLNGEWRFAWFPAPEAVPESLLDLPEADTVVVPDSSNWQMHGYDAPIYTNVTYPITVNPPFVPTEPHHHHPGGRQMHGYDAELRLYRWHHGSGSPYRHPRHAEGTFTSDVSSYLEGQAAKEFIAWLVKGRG
As for B1, the relative cleavage efficiency entry is on record as “less than 3%”.

Take B2: the relative cleavage efficiency entry is recorded as “less than 3%”.

Turning to B3, the relative cleavage efficiency entry was “less than 3.0%”.

As to B4, the relative cleavage efficiency result is “less than 3%”.

As to B5, the relative cleavage efficiency result is recorded as “less than 3%”.

Take B6: the relative cleavage efficiency result is given as “less than 3%”.

As for B7, the relative cleavage efficiency entry is recorded as “less than 3.0%”.

B8: the relative cleavage efficiency result is “less than 3%”.

The next data set addresses fusion protein PRY.
B1 displayed a relative cleavage efficiency of less than 3%.

Regarding B2, the relative cleavage efficiency was less than 3%.

For the protein B3, the relative cleavage efficiency entry is recorded as “less than 3.0%”.

B4 gave a relative cleavage efficiency of less than 3%.

For B5, the relative cleavage efficiency is less than 3%.

The protein B6 had a relative cleavage efficiency of less than 3%.

Consider B7, for which the relative cleavage efficiency result is “less than 3.0%”.

B8: the relative cleavage efficiency was less than 3%.
